For this assay, the target named is T1, recombinant hIL-18Rα extracellular domain (human, UniProt Q13478 22-329, biotin label (selection) or fluorescent probe (single-clone FACS), sites not given).
T1 construct: extracellular domain; also called hIL-18Rα ECD; hIL-18Rα-ECD
T1 sequence (looked up): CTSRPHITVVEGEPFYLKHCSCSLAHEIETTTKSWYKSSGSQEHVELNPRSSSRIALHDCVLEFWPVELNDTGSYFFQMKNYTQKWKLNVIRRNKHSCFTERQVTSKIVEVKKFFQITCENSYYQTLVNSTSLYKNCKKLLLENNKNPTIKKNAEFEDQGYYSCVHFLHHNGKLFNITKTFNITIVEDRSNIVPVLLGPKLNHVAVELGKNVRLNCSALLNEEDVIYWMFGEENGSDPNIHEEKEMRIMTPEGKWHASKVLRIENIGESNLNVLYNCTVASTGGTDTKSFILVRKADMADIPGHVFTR
The assay is described as follows: single-clone FACS, yeast display, 10 nM labelled hIL-18Rα ECD. The protocol: Following the screens described in Example 2, single clone FACS analysis was performed to verify the binding of selected yeast cell surface-expressed IL-18 variant polypeptides from Round 4 and Round 5 to 10 nM hIL-18Rα-ECD. Briefly, each yeast clone at the same density was incubated with 10 nM IL-18Rα-ECD labeled by fluorescent probe, respectively, followed by washing step. Then the ratio of fluorescent positive IL-18Rα ECD binding yeasts in the population of each clone were analyzed.

Experimental findings from patent US20260092093A1 (TJ BIOPHARMA SHANGHAI, published 2026) are described below.

B1: SEQ ID NO 6 (ligand)
chain: YFPKLSSKLSVIRNLNDQVLFIDQGNRPLFEDMTDSDCRDNAPRTIFIISMYKWSPWRGMAVTISVKCEKISTLSCENKIISFKEMNPPDDIKDTKSDIIFFQRSVPGHDNKMQFESSSYEGYFLACEKERDLFKLILKKEDELGDRSIMFTVQNED
Turning to B1, the “% of fluorescence positive cells” value is 95.5%.

B2: SEQ ID NO 25 (ligand)
chain: YFPKLKSKLSVIRNLNDQVLFIDQGNRPLFEDMTDSDCRDNAPRTIFIISMYKLSGVRGMAVTISVKCEKISTLSCENKIISFKEMNPPDTIKDTKSDIIFFQRSVPGHDNKMQFESSSYEGYFLACEKERDLFKLILKKEDELGDRSIMFTVQNED
Turning to B2, the “% of fluorescence positive cells” value is 90%.

B3: SEQ ID NO 14 (ligand)
chain: YFPKLRSKLSVIRNLNDQVLFIDQGNRPLFEDMTDSDCRDNAPRTIFIISMYKYSTARGMAVTISVKCEKISTLSCENKIISFKEMNPPDVIKDTKSDIIFFQHSVPGHDNKMQFESSSYEGYFLACEKERDLFKLILKKEDELGDRSIMFTVQNED
Turning to B3, the “% of fluorescence positive cells” value stood at 93.2%.

B4: SEQ ID NO 30 (ligand)
chain: YFPKLKSKLSVIRNLNDQVLFIDQGNRPLFEDMTDSDCRDNAPRTIFIISMYKHSIHRGMAVTISVKCEKISTLSCENKIISFKEMNPPDVIKDTKSDIIFFQVSVPGHDNKMQFESSSYEGYFLACEKERDLFKLILKKEDELGDRSIMFTVQNED
As for B4, the “% of fluorescence positive cells” value stood at 89.7%.

B5: SEQ ID NO 15 (ligand)
chain: YFPKLRSKLSVIRNLNDQVLFIDQGNRPLFEDMTDSDCRDNAPRTIFIISMYKSSRGRGMAVTISVKCEKISTLSCENKIISFKEMNPPDVIKDTKSDIIFFQTSVPGHDNKMQFESSSYEGYFLACEKERDLFKLILKKEDELGDRSIMFTVQNED
On to B5, for which the “% of fluorescence positive cells” value worked out at 93%.

B6: SEQ ID NO 20 (ligand)
chain: YFPKLKSKLSVIRNLNDQVLFIDQGNRPLFEDMTDSDCRDNAPRTIFIISMYKFSTVRGMAVTISVKCEKISTLSCENKIISFKEMNPPDGIKDTKSDIIFFQHSVPGHDNKMQFESSSYEGYFLACEKERDLFKLILKKEDELGDRSIMFTVQNED
Regarding B6, the “% of fluorescence positive cells” value was 91.7%.

B7: SEQ ID NO 33 (ligand)
chain: YFGKLKSKLSVIRNLNDQVLFIDQGNRPLFEDMTDSDCRDNAPRTIFIISMYKLSTRRGMAVTISVKCEKISTLSCENKIISFKEMNPPDPIKDTKSDIIFFQRSVPGHDNKMQFESSSYEGYFLACEKERDLFKLILKKEDELGDRSIMFTVQNED
As to B7, the “% of fluorescence positive cells” value amounted to 88.8%.

B8: SEQ ID NO 10 (ligand)
chain: YFTKLKSKLSVIRNLNDQVLFIDQGNRPLFEDMTDSDCRDNAPRTIFIISMYKWSSDRGMAVTISVKCEKISTLSCENKIISFKEMNPPDAIKDTKSDIIFFQVSVPGHDNKMQFESSSYEGYFLACEKERDLFKLILKKEDELGDRSIMFTVQNED
For the molecule B8, the “% of fluorescence positive cells” value is 94.8%.

B9: SEQ ID NO 16 (ligand)
chain: YFPKLTSKLSVIRNLNDQVLFIDQGNRPLFEDMTDSDCRDNAPRTIFIISMYKHSTYRGMAVTISVKCEKISTLSCENKIISFKEMNPPDAIKDTKSDIIFFQRSVPGHDNKMQFESSSYEGYFLACEKERDLFKLILKKEDELGDRSIMFTVQKED
B9: the “% of fluorescence positive cells” value was 93%.

B10: SEQ ID NO 19 (ligand)
chain: YFPKLRSKLSVIRNLNDQVLFIDQGNRPLFEDMTDSDCRDNAPRTIFIISMYKWSYPRGMAVTISVKCEKISTLSCENKIISFKEMNPPDSIKDTKSDIIFFQSSVPGHDNKMQFESSSYEGYFLACEKERDLFKLILKKEDELGDRSIMFTVQNED
In the case of B10, the “% of fluorescence positive cells” value is 97.9%.

B11: SEQ ID NO 23 (ligand)
chain: YFPKLKSKLSVIRNLNDQVLFIDQGNRPLFEDMTDSDCRDNAPRTIFIISMYKGSGTRGMAVTISVKCEKISTLSCENKIISFKEMNPPDAIKDTKSDIIFFQRSVPGHDNKMQFESSSYEGYFLACEKERDLFKLILKKEDELGDRSIMFTVQNED
On to B11, for which the “% of fluorescence positive cells” value was 90.8%.

B12: SEQ ID NO 34 (ligand)
chain: YFPKLKSKLSVIRNLNDQVLFIDQGNRPLFEDMTDSDCRDNAPRTIFIISMYKQSTWRGMAVTISVKCEKISTLSCENKIISFKEMNPPDCIKDTKSDIIFFQRSVPGHDNKMQFESSSYEGYFLACEKERDLFKLILKKEDELGDRSIMFTVQNED
For the molecule B12, the “% of fluorescence positive cells” value was found to be 88.6%.

B13: SEQ ID NO 31 (ligand)
chain: YFPKLKSKLSVIRNLNDQVLFIDQGNRPLFEDMTDSDCRDNAPRTIFIISMYKWSARRGMAVTISVKCEKISTLSCENKIISFKEMNPPDPIKDTKSDIIFFQSSVPGHDNKMQFESSSYEGYFLACEKERDLFKLILKKEDELGDRSIMFTVQNED
B13: the “% of fluorescence positive cells” value was determined as 89.5%.

B14: SEQ ID NO 24 (ligand)
chain: YFDKLGSKLSVIRNLNDQVLFIDQGNRPLFEDMTDSDCRDNAPRTIFIISMYKWSPWRGMAVTISVKCEKISTLSCENKIISFKEMNPPDNIKDTKSDIIFFQRSVPGHDNKMQFESSSYEGYFLACEKERDLFKLILKKEDELGDRSIMFTVQNED
With B14, the “% of fluorescence positive cells” value amounted to 90.1%.

B15: SEQ ID NO 29 (ligand)
chain: YFPKLTSKLSVIRNLNDQVLFIDQGNRPLFEDMTDSDCRDNAPRTIFIISMYKHSYARGMAVTISVKCEKISTLSCENKIISFKEMNPPDVIKDTKSDIIFFQRSVPGHDNKMQFESSSYEGYFLACEKERDLFKLILKKEDELGDRSIMFTVQNED
Consider B15, for which the “% of fluorescence positive cells” value was 89.7%.

B16: SEQ ID NO 13 (ligand)
chain: YFPKLRSKLSVIRNLNDQVLFIDQGNRPLFEDMTDSDCRDNAPRTIFIISMYKWSKTRGMAVTISVKCEKISTLSCENKIISFKEMNPPDVIKDTKSDIIFFQYSVPGHDNKMQFESSSYEGYFLACEKERDLFKLILKKEDELGDRSIMFTVQNED
As to B16, the “% of fluorescence positive cells” value came out at 93.2%.

B17: SEQ ID NO 32 (ligand)
chain: YFPKLRSKLSVIRNLNDQVLFIDQGNRPLFEDMTDSDCRDNAPRTIFIISMYKHSSRRGMAVTISVKCEKISTLSCENKIISFKEMNPPDIIKDTKSDIIFFQYSVPGHDNKMQFESSSYEGYFLACEKERDLFKLILKKEDELGDRSIMFTVQNED
In the case of B17, the “% of fluorescence positive cells” value amounted to 88.9%.

B18: SEQ ID NO 18 (ligand)
chain: YLPKLRSKLSVIRNLNDQVLFIDQGNRPLFEDMTDSDCRDNAPRTIFIISMYKWSTSRGMAVTISVKCEKISTLSCENKIISFKEMNPPDSIKDTKSDIIFFQSSVPGHDNKMQFESSSYEGYFLACEKERDLFKLILKKEDELGDRSIMFTVQKED
As to B18, the “% of fluorescence positive cells” value worked out at 92%.

B19: SEQ ID NO 7 (ligand)
chain: YFPKLKSKLSVIRNLNDQVLFIDQGNRPLFEDMTDSDCRDNAPRTIFIISMYKHSTVRGMAVTISVKCEKISTLSCENKIISFKEMNPPDVIKDTKSDIIFFQRSVPGHDNKMQFESSSYEGYFLACEKERDLFKLILKKEDELGDRSIMFTVQNED
With B19, the “% of fluorescence positive cells” value turned out to be 95.5%.
